Experimental findings from article PMC549075 are described below.

For the experiment, the target named is Lamb brain tubulin (lamb).

In the case of “HIV-1 Tat protein, Eli strain (natural protein)”, the ΔOD 350 nm plateau of 15 μM tubulin at 37°C with 8 μM compound was 1.61 ΔOD 350 nm and the ΔOD ratio (plateau with 8 μM compound divided by plateau of tubulin alone) turned out to be 5.27.

Tat Eli peptide 38-72: the ΔOD 350 nm plateau of 15 μM tubulin at 37°C with 8 μM compound is 1.59 ΔOD 350 nm and the ΔOD ratio (plateau with 8 μM compound divided by plateau of tubulin alone) was determined as 5.2.

Turning to Tat Eli peptide 73-99, the ΔOD 350 nm plateau of 15 μM tubulin at 37°C with 8 μM compound (same level as the control: not active in tubulin polymerization) is 0.3 ΔOD 350 nm and the ΔOD ratio (plateau with 8 μM compound divided by plateau of tubulin alone) turned out to be 1.

Consider “Tat Oyi peptide 38-72 (from UniProt P20893 38-72)”, for which the ΔOD 350 nm plateau of 15 μM tubulin at 37°C with 8 μM compound was 0.78 ΔOD 350 nm and the ΔOD ratio (plateau with 8 μM compound divided by plateau of tubulin alone) is 2.56.

As for “Tat Oyi peptide 73-101 (from UniProt P20893 73-101)”, the ΔOD 350 nm plateau of 15 μM tubulin at 37°C with 8 μM compound (same level as the control: not active in tubulin polymerization) is 0.31 ΔOD 350 nm and the ΔOD ratio (plateau with 8 μM compound divided by plateau of tubulin alone) was 1.01.
